{"source": "patent EP4692126A1", "about": "(Sound Biopharmaceuticals Co. Ltd., dated 2026)", "binders": {"B1": {"name": "hB5-2-10 (antibody, human IgG1, kappa)", "heavy": "not shown", "light": "DIQMTQSPSSLSASVGDRVTISCRASQDISNYLNWYQQKPGKVPKLLIYHTSILHSGVPSRFSGSGSGTDYSLTISSLQPEDVATYFCQQGDTVPLTFGGGTKVEIKRTVAAPSVFIFPPSDEQLKSGTASVVCLLNNFYPREAKVQWKVDNALQSGNSQESVTEQDSKDSTYSLSSTLTLSKADYEKHKVYACEVTHQGLSSPVTKSFNRGEC", "notes": "Humanized IgG1 kappa; also called humanized antibody hB5-2-10"}, "B2": {"name": "antibody B5 (antibody, V domains shown)", "VH": "EVQLVESGGGLVKPGGSLKLSCAASGFTFRNYAMSWVRQSPDKRLEWVAEISTGGSYTYYPDTVTGRFTISRDNAKNTLYLEMSSLRSEDTAMYYCAFYYYGSSYSMDYWGQGTSVTVSS", "VL": "DIQMTQTTSSLSASLGDRVTISCRASQDISNYLNWYQQKPDGTVKLLIYHTSILHSGVPSRFSGSGSGTDYSLTISNLEQEDIATYFCQQGDTVPLTFGAGTKLELK", "notes": "Monoclonal antibody from hybridoma of immunized BALB/c mice"}, "B3": {"name": "hB5-2-12 (antibody, human IgG1, kappa)", "heavy": "not shown", "light": "B1 light with V43A, V83F", "notes": "Humanized IgG1 kappa"}, "B4": {"name": "hB5-2-2 (antibody, human IgG1, kappa, V domains shown)", "VH": "EVQLVESGGGLVQPGGSLRLSCAASGFTFRNYAMSWVRQAPGKGLEWVAEISTGGSYTYYPDTVTGRFTISRDNAKNSLYLQMNSLRAEDTAVYYCAFYYYGSSYSMDYWGQGTLVTVSS", "VL": "DIQMTQSPSSLSASVGDRVTISCRASQDISNYLNWYQQKPGKVPKLLIYHTSILHSGVPSRFSGSGSGTDYSLTISSLQPEDVATYFCQQGDTVPLTFGGGTKVEIKR", "notes": "Humanized IgG1 kappa"}, "B5": {"name": "hB5-2-7 (antibody, human IgG1, kappa, V domains shown)", "VH": "B4 VH with A75S, S78T", "VL": "B4 VL with S7T, P8T, Y36F, V43A, L46S, R61K, V83F", "notes": "Humanized IgG1 kappa"}, "B6": {"name": "hB5-2-4 (antibody, human IgG1, kappa, V domains shown)", "VH": "B4 VH", "VL": "B4 VL with V43A, V83F", "notes": "Humanized IgG1 kappa"}, "B7": {"name": "hB5-2-6 (antibody, human IgG1, kappa, V domains shown)", "VH": "B4 VH with A75S, S78T", "VL": "B4 VL", "notes": "Humanized IgG1 kappa"}, "B8": {"name": "hB5-2-1 (antibody, human IgG1, kappa, V domains shown)", "VH": "B4 VH", "VL": "B4 VL with V43A, V83I", "notes": "Humanized IgG1 kappa"}, "B9": {"name": "hB5-2-17 (antibody, human IgG1, kappa)", "heavy": "not shown", "light": "B1 light with V43A, V83I", "notes": "Humanized IgG1 kappa"}, "B10": {"name": "hB5-2-11 (antibody, human IgG1, kappa)", "heavy": "not shown", "light": "B1 light with S7T, P8T, Y36F, V43A, L46S, R61K, V83F", "notes": "Humanized IgG1 kappa"}, "B11": {"name": "hB5-2-9 (antibody, human IgG1, kappa)", "heavy": "not shown", "light": "B1 light with V43A, V83I", "notes": "Humanized IgG1 kappa"}, "B12": {"name": "hB5-2-13 (antibody, human IgG1, kappa, V domains shown)", "VH": "B4 VH with L11V, G16R, A75S, S78T, N84S", "VL": "B4 VL with V43A, V83I", "notes": "Humanized IgG1 kappa"}, "B13": {"name": "hB5-2-19 (antibody, human IgG1, kappa)", "heavy": "not shown", "light": "B1 light with S7T, P8T, Y36F, V43A, L46S, R61K, V83F", "notes": "Humanized IgG1 kappa"}, "B14": {"name": "hB5-2-16 (antibody, human IgG1, kappa, V domains shown)", "VH": "B4 VH with L11V, G16R, A75S, S78T, N84S", "VL": "B4 VL with V43A, V83F", "notes": "Humanized IgG1 kappa"}, "B15": {"name": "hB5-2-15 (antibody, human IgG1, kappa, V domains shown)", "VH": "B4 VH with L11V, G16R, A75S, S78T, N84S", "VL": "B4 VL with S7T, P8T, Y36F, V43A, L46S, R61K, V83F", "notes": "Humanized IgG1 kappa"}, "B16": {"name": "hB5-2-5 (antibody, human IgG1, kappa, V domains shown)", "VH": "B4 VH with A75S, S78T", "VL": "B4 VL with V43A, V83I", "notes": "Humanized IgG1 kappa"}, "B17": {"name": "hB5-2-20 (antibody, human IgG1, kappa)", "heavy": "not shown", "light": "B1 light with V43A, V83F", "notes": "Humanized IgG1 kappa"}, "B18": {"name": "hB5-2-14 (antibody, human IgG1, kappa, V domains shown)", "VH": "B4 VH with L11V, G16R, A75S, S78T, N84S", "VL": "B4 VL", "notes": "Humanized IgG1 kappa"}, "B19": {"name": "hB5-2-18 (antibody, human IgG1, kappa)", "heavy": "not shown", "light": "B1 light", "notes": "Humanized IgG1 kappa"}, "B20": {"name": "hB5-2-8 (antibody, human IgG1, kappa, V domains shown)", "VH": "B4 VH with A75S, S78T", "VL": "B4 VL with V43A, V83F", "notes": "Humanized IgG1 kappa"}, "B21": {"name": "hB5-2-3 (antibody, human IgG1, kappa, V domains shown)", "VH": "B4 VH", "VL": "B4 VL with S7T, P8T, Y36F, V43A, L46S, R61K, V83F", "notes": "Humanized IgG1 kappa"}}, "note": "Residue numbers refer to the chain shown, from its start."}
{"biological_target": "T1, mouse 5T4 antigen (TPBG-His, mouse) (mouse, UniProt Q9Z0L0 32-361, limits assumed)", "T1 construct": "One of the '3 different species of TPBG-His' coated in the cross reactivity ELISA; also called mouse TPBG-His; not shown: His tag", "T1 sequence (looked up)": "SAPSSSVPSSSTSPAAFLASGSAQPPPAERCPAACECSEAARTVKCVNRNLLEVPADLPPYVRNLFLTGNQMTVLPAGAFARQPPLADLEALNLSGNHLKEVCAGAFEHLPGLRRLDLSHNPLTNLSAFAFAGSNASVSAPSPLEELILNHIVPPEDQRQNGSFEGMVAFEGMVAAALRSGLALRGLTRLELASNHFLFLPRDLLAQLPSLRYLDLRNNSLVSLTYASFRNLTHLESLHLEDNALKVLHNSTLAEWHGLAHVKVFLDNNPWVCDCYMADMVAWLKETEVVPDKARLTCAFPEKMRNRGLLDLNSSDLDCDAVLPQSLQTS", "assay": "ELISA, TPBG-His coated at 1 ug/ml"}
{"binder": "B1", "binding result": "no binding (tested: highest concentration tested 20000 ng/ml)"}
{"biological_target": "T2, TPBG-His (UniProt Q13641 32-355, limits assumed)", "T2 construct": "probably the human protein, the same as m24; also called TPBG-His antigen; TPBG-His protein; not shown: His tag", "T2 sequence (looked up)": "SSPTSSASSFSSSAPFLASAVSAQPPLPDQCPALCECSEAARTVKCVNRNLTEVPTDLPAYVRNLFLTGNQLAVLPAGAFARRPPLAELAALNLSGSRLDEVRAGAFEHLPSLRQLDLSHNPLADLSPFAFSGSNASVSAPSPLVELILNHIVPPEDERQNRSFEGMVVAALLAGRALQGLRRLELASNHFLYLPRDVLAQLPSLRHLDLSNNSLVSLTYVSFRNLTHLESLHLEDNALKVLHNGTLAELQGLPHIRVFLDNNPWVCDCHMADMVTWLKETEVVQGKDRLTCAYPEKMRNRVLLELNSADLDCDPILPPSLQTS", "assay": "ELISA, TPBG-His coated at 1 ug/ml, anti-human IgG Fc HRP detection", "units": {"EC50": "ng/mL"}}
{"binder": "B1", "EC50": 2.8}
{"biological_target": "T2, TPBG-His", "assay": "SPR (Biacore), TPBG-His amine-coupled to CM5, antibody as analyte, 1:1 model", "units": {"Kd": "nM", "koff": "s⁻¹", "kon": "M⁻¹ s⁻¹"}}
{"binder": "B1", "Kd": 2.92, "koff": 0.000627, "kon": 215000}
{"biological_target": "T3, 5T4 EDC-Fc (UniProt Q13641 32-355)", "T3 construct": "domain: EDC; Printed with molecular weight 65-120 kD; not shown: Fc part", "T3 sequence (looked up)": "T2 sequence (looked up)", "assay": "SPR (Biacore), 5T4 EDC-Fc amine-coupled to CM5, antibody as analyte, 1:2 model", "units": {"Kd": "nM", "koff": "s⁻¹", "kon": "M⁻¹ s⁻¹"}}
{"binder": "B2", "Kd": 0.018, "koff": "1.45e-05", "kon": 803000}
{"biological_target": "T2, TPBG-His", "assay": "SPR (Biacore 8K), antibody captured on anti-human antibody CM5 chip, TPBG-His 300 nM, 1:1 model", "units": {"Kd": "nM", "koff": "s⁻¹", "kon": "M⁻¹ s⁻¹"}}
{"binder": "B3", "Kd": 0.785, "koff": 0.000298, "kon": 380000}
{"binder": "B4", "Kd": 2.36, "koff": 0.000527, "kon": 223000}
{"binder": "B5", "Kd": 0.869, "koff": 0.000342, "kon": 393000}
{"binder": "B6", "Kd": 0.845, "koff": 0.000298, "kon": 353000}
{"binder": "B7", "Kd": 1.53, "koff": 0.000497, "kon": 326000}
{"binder": "B8", "Kd": 1.11, "koff": 0.000388, "kon": 351000}
{"binder": "B9", "Kd": 0.902, "koff": 0.000317, "kon": 351000}
{"binder": "B1", "Kd": 2.31, "koff": 0.000487, "kon": 211000}
{"binder": "B10", "Kd": 1.39, "koff": 0.000431, "kon": 310000}
{"binder": "B11", "Kd": 0.927, "koff": 0.000278, "kon": 299000}
{"binder": "B12", "Kd": 0.721, "koff": 0.000313, "kon": 434000}
{"binder": "B13", "Kd": 0.88, "koff": 0.000348, "kon": 396000}
{"binder": "B14", "Kd": 0.634, "koff": 0.000347, "kon": 547000}
{"binder": "B15", "Kd": 1.95, "koff": 0.000632, "kon": 324000}
{"binder": "B16", "Kd": 0.827, "koff": 0.000279, "kon": 337000}
{"binder": "B17", "Kd": 0.95, "koff": 0.000302, "kon": 318000}
{"binder": "B18", "Kd": 1.74, "koff": 0.000774, "kon": 445000}
{"binder": "B19", "Kd": 2.07, "koff": 0.00061, "kon": 294000}
{"binder": "B20", "Kd": 0.95, "koff": 0.000302, "kon": 318000}
{"binder": "B21", "Kd": 1.87, "koff": 0.000681, "kon": 364000}
